This is an account of results in patent US20240133870A1, “COMBINED TREATMENT FOR CANCER” (Yeda Research and Development Co. Ltd., priority 2021, published 2024).

Format in all cases: cell-based, human
Test [1] relates to GFP-labeled cancer cell lines. Briefly: Effect of secreted factors on proliferation under DMSO (pScore). As to conditions: DMSO control experiments. The text has this:
FIGS. 8A-D show schematic overviews of rScore and bScore calculation. Calculation of rScore and bScore is derived from the data points A, B, C, D marked on GFP-level curves of cells under different treatment conditions, as shown in FIGS. 8A-B. As all cells used in the screen are constitutively expressing GFP, GFP level was used as a proxy for the number of cells. […] Proliferation score (pScore) describes the percent of change in the number of cells after seven days of treatment with a given factor. Rescue score (rScore) quantifies the effect of a given factor on the resistance to a given drug. Relative rescue describes the proportion of cells treated with drug+factor out of untreated cells. The higher this ratio, the stronger effect the factor has on drug resistance. Residual drug growth describes the proportion of cells growth under drug relative to no treatment condition. […] Finally, the rescue score (rScore) is the relative rescue after adding a penalty for drugs with low efficacy. […] Bliss Score (bScore) quantifies the extent of synergism between a given factor and a given drug. Factor effect describes the proportion (or probability) of cells killed by the factor. Drug effect describes the proportion (or probability) of cells killed by the drug. The observed killing effect (observed effect) describes the proportion (or probability) of cells killed by both factor and drug. Assuming drug killing and factor killing are independent events, the expected killing effect (expected effect) is the sum of probabilities D and F excluding events intersection (D*F), which represents a subpopulation of cells that may be sensitive to both the drug and factor. Finally, bliss score (bScore) is the delta between observed and expected killing multiplied by −1 to symbolize the expected decrease in the number of cancer cells following the addition of a factor. […] Upper panel—effect on cells proliferation. […] The number of experiments (out of 79) with pro-proliferative effect (pScore>30%) and anti-proliferative effect (pScore<−30%) were counted for each factor in the secretome library. […]

The test system of test [2] is BRAF (V600E) melanoma cell lines. Briefly: High-throughput secretome screen of GFP-labeled cells (rScore, bScore, ranks). The note with it: melanoma cell lines bearing BRAF (V600E); BRAF/MEK inhibitors. On the procedure:
(§1) Cell lines—All cell lines (Table 1 hereinbelow) were cultured in DMEM supplemented with 100 units/ml Penicillin and Streptomycin, 2 μmM Glutamine, 1 μmM Pyruvate and 10% FCS, and maintained in a humidified incubator at 37° C. and 5% CO2. Cells were routinely tested for Mycoplasma contamination by PCR. To generate stable cell lines constitutively expressing GFP, cells were infected with lentivirus bearing plasmid pLEX_TRC206 and sorted by FACS to enrich for GFP positive population. For the in-vitro experiments, human cancer cell lines which constitutively expressed GFP were treated with various cytotoxic and targeted drugs (see Table 1 hereinbelow); and the effect of different secreted factors (Table 2 hereinbelow) on the innate resistance to a drug based on the cells' GFP level was determined.
(§2) High throughput in-vitro screens—For high-throughput screens or drug dose curves, cells were counted by Vi-Cell XR (Beckman coulter). Cells were seeded on 384 wells plates (Corning, 3712) using the EL406 washer dispenser (BioTek). Liquid handling of medium and drugs was effected by CyBi (WellFlex vario, CyBio). GFP fluorescence of cells was measured at 477/517 nm (excitation/emission) using Cytation3 (BioTek). Due to fluorescence reading bias at plate margins and corners, these margins were discarded for analysis.
High-throughput secretome screens—To screen for the effect of secreted factors on the response of cell lines to different drugs, the following seven-days procedure was performed. On day 0, GFP expressing cells were seeded at 1500-2000 cells per well on 384-wells plates (Corning, 3712), depending on the cell line's proliferation rate. Each plate was seeded with one cell line. At day 1, each plate was treated with the secretome library (Table 2 hereinabove), one well per factor. Immediately afterwards, each plate was treated either with a drug (Table 1 hereinabove) at the EC90 concentration or with DMSO control. The CyBi liquid handler was used to treat each plate with a drug and the secretome library as well as to replace the medium, drug and secreted factors following 3 days of incubation (day 4). Cell fluorescence was read at days 1, 4 and 7 by Cytation3, and for some of the experiments at day 6 as well. Wells of interest were imaged at day 7 using the Operetta (PerkinElmer).
(2) Based on observations, the plate area spanning rows 4-13 and columns 4-21 was hardly affected by plate margins biases. This area is referred to herein as plate core. To control for row specific and column specific biases, plate outliers (Zscore>4 or Zscore<−4) and edges were masked. Next, to capture row and column (col) biases for the i-th row and the j-th column, the bias factor was calculated:
Upon QC completion, 199 experiment plates and 79 control (DMSO) plates were left for further analysis. • 4—Scoring methods-A GFP value for wells without secretome factors was obtained by averaging over the plate internal control wells. Those wells contained the solvents used in the secretome library. pScore: The effect of the secreted factors on proliferation under DMSO was evaluated using pScore (proliferation score). Values were given in percent units.
rScore: The effect of the secreted factors on resistance to anti-cancer drugs was evaluated using rScore (rescue score). rScore was assigned to a given factor under two conditions: • 1. drug effect was >30% (residual drug growth<0.7) • 2. proliferation ratio between factor treated and untreated cells in the presence of drug was higher than one:
rSscore=S−S*residual drug growth
Based on manual inspection of the rScore distribution across the data, the threshold for a potential effect on drug resistance was set to 0.2 (FIGS. 8A-D).
(*) Negative values were considered as zero. […] Groups with less than 4 experiments were discarded, finally resulting in 13 groups of experiments (FIG. 1E). […]

Test [3] relates to BRAF (V600E) colorectal cancer cell lines. The experiment in a line: High-throughput secretome screen of GFP-labeled cells (rScore). As to conditions: colorectal cell lines bearing BRAF (V600E); BRAF/MEK inhibitors. The method, then:
as §1, §2
High-throughput secretome screens—To screen for the effect of secreted factors on the response of cell lines to different drugs, the following seven-days procedure was performed. On day 0, GFP expressing cells were seeded at 1500-2000 cells per well on 384-wells plates (Corning, 3712), depending on the cell line's proliferation rate. Each plate was seeded with one cell line. […] Cell fluorescence was read at days 1, 4 and 7 by Cytation3, and for some of the experiments at day 6 as well. […]
(2) Based on observations, the plate area spanning rows 4-13 and columns 4-21 was hardly affected by plate margins biases. […] Next, to capture row and column (col) biases for the i-th row and the j-th column, the bias factor was calculated: […]

Another test has as its system pERK in G361 cell line. The experiment in a line: In-cell western blot of pERK. As to conditions: G361 cells treated with the BRAF inhibitor (vemurafenib 2 μM and trametinib 1 nM). The method, then:
PLX4720—BRAFi, 2 μM; PD184352—MEKi, 1 μM, EMAPII—50 ng/ml. P-value of the difference between GFP(drug)/GFP(no-treatment) and GFP(drug+EMAPII)/GFP(no-treatment), at day 7, was calculated by two-sided t-test. ** p<0.01, *** p<0.001. Average rScore (+/−SE) was calculated from at least four different experiments. […] A total of 69 experiments are shown. […] The effect of FGF2 (10 ng/ml), EMAPII (10 ng/ml) or AIMP1 (10 ng/ml) on G361 μmelanoma cells treated with vemurafenib (2 μM) was measured with or without the FGFR inhibitor PD17307 (0.5 μM). Data represent an average of 4 to 8 experiments. P-value was calculated by two-sided t-test. *** p<0.001. Error bars represent standard error. […] P-values were calculated by two-sided t-test relative to luciferase. * p<0.05, Q-value=0.1. […] P-value was calculated by two-sided t-test. *** p<0.001.
In-cell western blot—To validate that EMAPII mediates its effect on resistance to BRAF inhibition via the FGF receptors (FIG. 2G), the melanoma BRAF mutated cell line G361 was seeded in a 384-wells plate at a concentration of 16,000 cells per well. […] Finally, the plate was scanned with Odyssey (Li-cor) using microplate settings (169 μm, […]), and fluorescence intensity was quantified and normalized to the DRAQ level, and then to no drug control (DMSO).

On to “insulin: pro-proliferative secreted factor”, for which the “effect on proliferation (pScore)” value in test [1] was “pro-proliferative”. On the same count and under the same terms, next, neuregulin-1: “pro-proliferative”.

B1: FGF7: fibroblast growth factor 7, ligand of FGFR2IIIb (protein, UniProt P21781 32-194, looked up)
Fibroblast growth factor 7: CNDMTPEQMATNVNCSSPERHTRSYDYMEGGDIRVRRLFCRTQWYLRIDKRGKVKGTQEMKNNYNIMEIRTVAVGIVAIKGVESEFYLAMNKEGKLYAKKECNEDCNFKELILENHYNTYASAKWTHNGGEMFVALNQKGIPVRGKKTKKEQKTAHFLPMAIT
B1: the results for the “effect on drug resistance” value in test [2] and in test [3] were “much smaller effect on melanoma cell lines” and “could confer drug resistance to colorectal cancers”, respectively.

B2: AIMP1: aminoacyl tRNA synthetase complex interacting multifunctional protein 1 (protein, UniProt Q12904 2-312, looked up)
Aminoacyl tRNA synthase …: ANNDAVLKRLEQKGAEADQIIEYLKQQVSLLKEKAILQATLREEKKLRVENAKLKKEIEELKQELIQAEIQNGVKQIPFPSGTPLHANSMVSENVIQSTAVTTVSSGTKEQIKGGTGDEKKAKEKIEKKGEKKEKKQQSIAGSADSKPIDVSRLDLRIGCIITARKHPDADSLYVEEVDVGEIAPRTVVSGLVNHVPLEQMQNRMVILLCNLKPAKMRGVLSQAMVMCASSPEKIEILAPPNGSVPGDRITFDAFPGEPDKELNPKKKIWEQIQPDLHTNDECVATYKGVPFEVKGKGVCRAQTMSNSGIK
Consider B2, for which, in the test with pERK in G361 cell line, the pERK reactivation entry was “partially reactivate pERK”.

B3: FGF10: fibroblast growth factor 10, ligand of FGFR2IIIb (protein, UniProt O15520 38-208, looked up)
Fibroblast growth factor 10: QALGQDMVSPEATNSSSSSFSSPSSAGRHVRSYNHLQGDVRWRKLFSFTKYFLKIEKNGKVSGTKKENCPYSILEITSVEIGVVAVKAINSNYYLAMNKKGKLYGSKEFNNDCKLKERIEENGYNTYASFNWQHNGRQMYVALNGKGAPRRGQKTRRKNTSAHFLPMVVHS
Regarding B3, the entries for the “effect on drug resistance” value in test [2] and in test [3] were “much smaller effect on melanoma cell lines” and “could confer drug resistance to colorectal cancers”, respectively.

B4: BTC: EGFR ligand beta-cellulin (protein, UniProt P35070 32-111, looked up)
Betacellulin: DGNSTRSPETNGLLCGDPEENCAATTTQSKRKGHFSRCPKQYKHYCIKGRCRFVVAEQTPSCVCDEGYIGARCERVDLFY
B4: the “effect on drug resistance” value in test [3] is recorded as “mediate resistance only to the colorectal cell lines”.

B5: interferon gamma: anti-proliferative secreted factor (protein, UniProt P01579 24-161, looked up)
Interferon gamma: QDPYVKEAENLKKYFNAGHSDVADNGTLFLGILKNWKEESDRKIMQSQIVSFYFKLFKNFKDDQSIQKSVETIKEDMNVKFFNSNKKKRDDFEKLTNYSVTDLNVQRKAIHELIQVMAELSPAAKTGKRKRSQMLFRG
For the molecule B5, in test [1], the “effect on proliferation (pScore)” value was “anti-proliferative”.
